Experimental data taken from patent publication US20140179604A1 (U S A REPRESENTED BY THE DEPARTMENT OF VETERANS AFFAIRS, published 2014).
Each block holds one binder with its values, some of them ahead of it. Non-standard residues stand in square brackets, D forms with d. *: point of attachment. Desaminotyrosyl = O=C(CCc1ccc(O)cc1)*; hArg = N=C(N)NCCCC[C@H](N)C(=O)O; Nle = CCCC[C@H](N)C(=O)O; Orn = NCCC[C@H](N)C(=O)O; Abu = CC[C@H](N)C(=O)O; Aoc = NCCCCCCCC(=O)O; Ava = NCCCCC(=O)O

Columns and labels:
[1] = target: T1, GHRH receptor (membrane receptors of human anterior pituitary cells) (human, UniProt Q02643 23-423); test: competition with [His1,125I-Tyr10,Nle27]hGHRH(1-32)NH2, human pituitary membranes
T1 construct: whole, on cells; Native receptor in a membrane fraction of purchased normal human pituitaries, not intact cells; also called hGHRH receptor; human pituitary membrane homogenates
T1 sequence (looked up): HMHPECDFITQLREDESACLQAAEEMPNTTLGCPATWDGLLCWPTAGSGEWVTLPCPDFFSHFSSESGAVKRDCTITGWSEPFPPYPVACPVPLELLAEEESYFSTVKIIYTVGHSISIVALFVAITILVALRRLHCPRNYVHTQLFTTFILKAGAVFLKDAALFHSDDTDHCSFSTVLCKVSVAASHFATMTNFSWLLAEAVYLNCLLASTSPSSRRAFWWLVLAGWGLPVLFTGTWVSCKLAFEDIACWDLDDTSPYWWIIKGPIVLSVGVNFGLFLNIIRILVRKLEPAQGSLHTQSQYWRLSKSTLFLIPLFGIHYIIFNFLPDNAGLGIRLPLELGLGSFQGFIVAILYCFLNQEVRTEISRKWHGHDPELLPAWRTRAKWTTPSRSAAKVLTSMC
From the text: Normal human pituitaries were purchased from the National Hormone and Peptide Program (A. F. Parlow, Los Angeles, County Harbor—UCLA Medical Center, Torrance, Calif.).

[2] = target: T2, GHRH receptor (membrane receptors of human anterior pituitary cells) (human) (UniProt Q02643); test: competition with 125I-JV-1-42, human pituitary membranes
T2 sequence (looked up): T1 sequence (looked up)

[3] = target: T2, GHRH receptor (membrane receptors of human anterior pituitary cells) (human); test: competition with 125I-[His1,Nle27]hGHRH(1-32)NH2, human pituitary membranes

B1: P-23252 [Dat^1-D-Ala^2, Orn^12, Abu^15, Orn^21, Nle^27, Asp^28, Har^30]hGHRH(1-30)NH2 (peptide)
peptide: [Desaminotyrosyl][dA]DAIFTNSYR[Orn]VL[Abu]QLSAR[Orn]LLQDI[Nle]DR[hArg]-NH2
SMILES: CCCC[C@H](NC(=O)[C@@H](NC(=O)[C@H](CC(=O)O)NC(=O)[C@H](CCC(N)=O)NC(=O)[C@H](CC(C)C)NC(=O)[C@H](CC(C)C)NC(=O)[C@H](CCCN)NC(=O)[C@H](CCCNC(=N)N)NC(=O)[C@H](C)NC(=O)[C@H](CO)NC(=O)[C@H](CC(C)C)NC(=O)[C@H](CCC(N)=O)NC(=O)[C@H](CC)NC(=O)[C@H](CC(C)C)NC(=O)[C@@H](NC(=O)[C@H](CCCN)NC(=O)[C@H](CCCNC(=N)N)NC(=O)[C@H](Cc1ccc(O)cc1)NC(=O)[C@H](CO)NC(=O)[C@H](CC(N)=O)NC(=O)[C@@H](NC(=O)[C@H](Cc1ccccc1)NC(=O)[C@@H](NC(=O)[C@H](C)NC(=O)[C@H](CC(=O)O)NC(=O)[C@@H](C)NC(=O)CCc1ccc(O)cc1)[C@@H](C)CC)[C@@H](C)O)C(C)C)[C@@H](C)CC)C(=O)N[C@@H](CC(=O)O)C(=O)N[C@@H](CCCNC(=N)N)C(=O)N[C@@H](CCCCNC(=N)N)C(N)=O
notes: also called Peptide 23252
IC50 [1]: 0.14 nM
Relative affinity (Binding potency) vs GHRH [1]: 42.3 GHRH(1-29) = 1
Relative affinity (Binding potency) vs JI-38 [1]: 13.9 JI-38 = 1

B5: P-22327 [Dat^1, Gln^8, Orn^12, Abu^15, Orn^21, Nle^27, Asp^28, Apa^30]hGHRH(1-30)NH2 (peptide, from a related filing)
peptide: [Desaminotyrosyl]ADAIFTQSYR[Orn]VL[Abu]QLSAR[Orn]LLQDI[Nle]DR[Ava]-NH2
SMILES: CCCC[C@H](NC(=O)[C@@H](NC(=O)[C@H](CC(=O)O)NC(=O)[C@H](CCC(N)=O)NC(=O)[C@H](CC(C)C)NC(=O)[C@H](CC(C)C)NC(=O)[C@H](CCCN)NC(=O)[C@H](CCCNC(=N)N)NC(=O)[C@H](C)NC(=O)[C@H](CO)NC(=O)[C@H](CC(C)C)NC(=O)[C@H](CCC(N)=O)NC(=O)[C@H](CC)NC(=O)[C@H](CC(C)C)NC(=O)[C@@H](NC(=O)[C@H](CCCN)NC(=O)[C@H](CCCNC(=N)N)NC(=O)[C@H](Cc1ccc(O)cc1)NC(=O)[C@H](CO)NC(=O)[C@H](CCC(N)=O)NC(=O)[C@@H](NC(=O)[C@H](Cc1ccccc1)NC(=O)[C@@H](NC(=O)[C@H](C)NC(=O)[C@H](CC(=O)O)NC(=O)[C@H](C)NC(=O)CCc1ccc(O)cc1)[C@@H](C)CC)[C@@H](C)O)C(C)C)[C@@H](C)CC)C(=O)N[C@@H](CC(=O)O)C(=O)N[C@@H](CCCNC(=N)N)C(=O)NCCCCC(N)=O
IC50 [2]: 1.99 nM
Relative affinity (Binding potency) vs JI-38 [2]: 2.18 JI-38 = 1
IC50 [3]: 2.04 nM
Relative affinity (Binding potency) compared to JI-38 [3]: 1.34 JI-38 = 1
Relative affinity (Binding potency) compared to hGHRH(1-29) (hGHRH(1-29)NH2 = 1) [3]: 3.75

Results, then the binder that gave them:

IC50 [1]: 0.07 nM
Relative affinity (Binding potency) vs GHRH [1]: 84.5 GHRH(1-29) = 1
Relative affinity (Binding potency) vs JI-38 [1]: 27.8 JI-38 = 1
B2: P-23254 [Dat^1, D-Ala^2, Thr^8, Orn^12, Abu^15, Orn^21, Nle^27, Asp^28, Har^30]hGHRH(1-30)NH2 (peptide)
peptide: [Desaminotyrosyl][dA]DAIFTTSYR[Orn]VL[Abu]QLSAR[Orn]LLQDI[Nle]DR[hArg]-NH2
SMILES: CCCC[C@H](NC(=O)[C@@H](NC(=O)[C@H](CC(=O)O)NC(=O)[C@H](CCC(N)=O)NC(=O)[C@H](CC(C)C)NC(=O)[C@H](CC(C)C)NC(=O)[C@H](CCCN)NC(=O)[C@H](CCCNC(=N)N)NC(=O)[C@H](C)NC(=O)[C@H](CO)NC(=O)[C@H](CC(C)C)NC(=O)[C@H](CCC(N)=O)NC(=O)[C@H](CC)NC(=O)[C@H](CC(C)C)NC(=O)[C@@H](NC(=O)[C@H](CCCN)NC(=O)[C@H](CCCNC(=N)N)NC(=O)[C@H](Cc1ccc(O)cc1)NC(=O)[C@H](CO)NC(=O)[C@@H](NC(=O)[C@@H](NC(=O)[C@H](Cc1ccccc1)NC(=O)[C@@H](NC(=O)[C@H](C)NC(=O)[C@H](CC(=O)O)NC(=O)[C@@H](C)NC(=O)CCc1ccc(O)cc1)[C@@H](C)CC)[C@@H](C)O)[C@@H](C)O)C(C)C)[C@@H](C)CC)C(=O)N[C@@H](CC(=O)O)C(=O)N[C@@H](CCCNC(=N)N)C(=O)N[C@@H](CCCCNC(=N)N)C(N)=O
notes: also called Peptide 23254

IC50 [1]: 0.08 nM
Relative affinity (Binding potency) vs GHRH [1]: 74 GHRH(1-29) = 1
Relative affinity (Binding potency) vs JI-38 [1]: 24.4 JI-38 = 1
B3: P-21304 [Dat^1, D-Ala^2, Gln^8, Orn^12, Abu^15, Orn^21, Nle^27, Asp^28, Amc^30]hGHRH(1-30)NH2 (peptide)
peptide: [Desaminotyrosyl][dA]DAIFTQSYR[Orn]VL[Abu]QLSAR[Orn]LLQDI[Nle]DR[Aoc]-NH2
SMILES: CCCC[C@H](NC(=O)[C@@H](NC(=O)[C@H](CC(=O)O)NC(=O)[C@H](CCC(N)=O)NC(=O)[C@H](CC(C)C)NC(=O)[C@H](CC(C)C)NC(=O)[C@H](CCCN)NC(=O)[C@H](CCCNC(=N)N)NC(=O)[C@H](C)NC(=O)[C@H](CO)NC(=O)[C@H](CC(C)C)NC(=O)[C@H](CCC(N)=O)NC(=O)[C@H](CC)NC(=O)[C@H](CC(C)C)NC(=O)[C@@H](NC(=O)[C@H](CCCN)NC(=O)[C@H](CCCNC(=N)N)NC(=O)[C@H](Cc1ccc(O)cc1)NC(=O)[C@H](CO)NC(=O)[C@H](CCC(N)=O)NC(=O)[C@@H](NC(=O)[C@H](Cc1ccccc1)NC(=O)[C@@H](NC(=O)[C@H](C)NC(=O)[C@H](CC(=O)O)NC(=O)[C@@H](C)NC(=O)CCc1ccc(O)cc1)[C@@H](C)CC)[C@@H](C)O)C(C)C)[C@@H](C)CC)C(=O)N[C@@H](CC(=O)O)C(=O)N[C@@H](CCCNC(=N)N)C(=O)NCCCCCCCC(N)=O
notes: also called Peptide 21304

IC50 [1]: 0.04 nM
Relative affinity (Binding potency) vs GHRH [1]: 148 GHRH(1-29) = 1
Relative affinity (Binding potency) vs JI-38 [1]: 48.7 JI-38 = 1
B4: P-23256 [Dat^1, D-Ala^2, Ala^8, Orn^12, Abu^15, Orn^21, Nle^27, Asp^28, Har^30]hGHRH(1-30)NH2 (peptide)
peptide: [Desaminotyrosyl][dA]DAIFTASYR[Orn]VL[Abu]QLSAR[Orn]LLQDI[Nle]DR[hArg]-NH2
SMILES: CCCC[C@H](NC(=O)[C@@H](NC(=O)[C@H](CC(=O)O)NC(=O)[C@H](CCC(N)=O)NC(=O)[C@H](CC(C)C)NC(=O)[C@H](CC(C)C)NC(=O)[C@H](CCCN)NC(=O)[C@H](CCCNC(=N)N)NC(=O)[C@H](C)NC(=O)[C@H](CO)NC(=O)[C@H](CC(C)C)NC(=O)[C@H](CCC(N)=O)NC(=O)[C@H](CC)NC(=O)[C@H](CC(C)C)NC(=O)[C@@H](NC(=O)[C@H](CCCN)NC(=O)[C@H](CCCNC(=N)N)NC(=O)[C@H](Cc1ccc(O)cc1)NC(=O)[C@H](CO)NC(=O)[C@H](C)NC(=O)[C@@H](NC(=O)[C@H](Cc1ccccc1)NC(=O)[C@@H](NC(=O)[C@H](C)NC(=O)[C@H](CC(=O)O)NC(=O)[C@@H](C)NC(=O)CCc1ccc(O)cc1)[C@@H](C)CC)[C@@H](C)O)C(C)C)[C@@H](C)CC)C(=O)N[C@@H](CC(=O)O)C(=O)N[C@@H](CCCNC(=N)N)C(=O)N[C@@H](CCCCNC(=N)N)C(N)=O
notes: also called Peptide 23256
